From patent US20210380703A1 (RIGEL PHARMACEUTICALS, published 2021) come the findings set out here.

One experiment has as its target T1, human ACVR2A (human, UniProt P27037 20-135, limits assumed).
T1 construct: also called activin receptor, type II A
Description: ELISA. In short, it runs like this: (§1)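 Monoclonal antibodies were first applied to human or mouse ACVR2A, alongside biotinylated goat anti-human kappa light chain (positive control) and human Fc (negative control); binding was then determined by ELISA.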

A further experiment deals with mouse ACVR2A (mouse, UniProt P27038 20-135, limits assumed). Description: ELISA. In a few lines:
as §1

In experiment [1] the target is T2, biotinylated goat anti-human kappa light chain.
T2 construct: positive control of the ELISA
As to the kind of experiment: ELISA, positive control. In a few lines: as §1
Also: test concentration or dose not given here.

T1 sequence (P27037 20-135 limits assumed): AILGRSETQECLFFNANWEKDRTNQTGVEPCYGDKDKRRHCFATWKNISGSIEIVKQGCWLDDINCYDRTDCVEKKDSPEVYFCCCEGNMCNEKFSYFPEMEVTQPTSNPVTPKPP
Sequence of mouse ACVR2A (P27038 20-135 limits assumed): as the sequence (P27037 20-135 limits assumed) above, with K20R, V73I counted along it

B1: 371_G07 (antibody, V domains shown)
VH: EVQLLESGGGLVQPGGSLRLSCAASGFTFSDYGMHWVRQAPGKGLEWVAGINYNGGYTSYADSVKGRFTISRDNSKNTLYLQMNSLRAEDTAVYYCARAATWHDTHLDYWGQGTLVTVSS
VL: DIQMTQSPSSLSASVGDRVTITCRASQSIVSYVNWYQQKPGKAPKLVIYAATSRASGVPSRFSGSGSGTDFTLTISSLQPEDFATYYCQQSYSLPLTFGGGTKVEIK
notes: Group II
B1: the optical density came out at 2.8 OD with human ACVR2A, 2.99 OD with mouse ACVR2A and 3.41 OD in experiment [1].

B2: 373_B01 (antibody, V domains shown)
VH: EVQLLESGGGLVQPGGSLRLSCAASGFTFDSYGMHWVRQAPGKGLEWVSGINYNGGYKSYADSVKGRFTISRDNSKNTLYLQMNSLRAEDTAVYYCARAATWHDTHLDYWGQGTLVTVSS
VL: DIQMTQSPSSLSASVGDRVTITCRASQSILSYVNWYQQKPGKAPKLVIYAATSRASGVPSRFSGSGSGTDFTLTISSLQPEDFATYYCQQSYDLPLTFGGGTKVEIK
notes: Group II
In the case of B2, the optical density in the experiment with human ACVR2A was 3.26 OD; with mouse ACVR2A, 3.58 OD; in experiment [1] it was 3.11 OD.

B3: 375_C03 (antibody, V domains shown)
VH: EVQLLESGGGLVQPGGSLRLSCAASGFTFDSYSMHWVRQAPGKGLEWVSGINYNGGYTSYADSVKGRFTISRDNSKNTLYLQMNSLRAEDTAVYYCARAATWHDTHLDYWGQGTLVTVSS
VL: DIQMTQSPSSLSASVGDRVTITCRASQSILSYVNWYQQKPGKAPKLVIYAATSRASGVPSRFSGSGSGTDFTLTISSLQPEDFATYYCQQSYESPLTFGGGTKVEIK
notes: Group II
With B3, the values for the optical density (in the experiment with human ACVR2A; in the experiment with mouse ACVR2A; in experiment [1]) were 3 OD, 3.24 OD and 3.16 OD, respectively.

B4: 374_H02 (antibody, V domains shown)
VH: EVQLLESGGGLVQPGGSLRLSCAASGFTFSSYGMHWVRQAPGKGLEWVASINYNGGYTSYADSVKGRFTISRDNSKNTLYLQMNSLRAEDTAVYYCARAATWHDTHLDYWGQGTLVTVSS
VL: DIQMTQSPSSLSASVGDRVTITCRASQSILSYVNWYQQKPGKAPKLLIYAATSLASGVPSRFSGSGSGTDFTLTISSLQPEDFATYYCQQSYDTPLTFGGGTKVEIK
notes: Group II
Turning to B4, the optical density came out at 3.26 OD in the experiment with human ACVR2A, 3.26 OD with mouse ACVR2A and 3.18 OD in experiment [1].

B5: 374_B01 (antibody, V domains shown)
VH: EVQLLESGGGLVQPGGSLRLSCAASGFTFDSYGMHWVRQAPGKGLEWVAGINYNSGYTSYADSVKGRFTISRDNSKNTLYLQMNSLRAEDTAVYYCARAATWHDTHLDYWGQGTLVTVSS
VL: DIQMTQSPSSLSASVGDRVTITCRASQSILSYLNWYQQKPGKAPKLLIYAASSLQSGVPSRFSGSGSGTDFTLTISSLQPEDFATYYCQQSYDSPLTFGGGTKVEIK
notes: Group II
Take B5: the optical density with human ACVR2A stood at 3.14 OD; in the experiment with mouse ACVR2A, 3.37 OD; in experiment [1] it was 2.92 OD.

B6: 374_B02 (antibody, V domains shown)
VH: EVQLLESGGGLVQPGGSLRLSCAASGFTFDSYSMHWVRQAPGKGLEWVAGINYNSGYTSYADSVKGRFTISRDNSKNTLYLQMNSLRAEDTAVYYCARAANWHDTHLDYWGQGTLVTVSS
VL: DIQMTQSPSSLSASVGDRVTITCRASQSIISYLNWYQQKPGKAPKLLIYAATSRASGVPSRFSGSGSGTDFTLTISSLQPEDFATYYCQQSYDSPLTFGGGTKVEIK
notes: Group I
B6: the values for the optical density (with human ACVR2A; with mouse ACVR2A; in experiment [1]) were 3.42 OD, 3.54 OD and 3.02 OD, respectively.

B7: 372_B11 (antibody, V domains shown)
VH: EVQLLESGGGLVQPGGSLRLSCAASGFTFSSYSMHWVRQAPGKGLEWVAGINYNSGYTSYADSVKGRFTISRDNSKNTLYLQMNSLRAEDTAVYYCARAANWHDTHLDYWGQGTLVTVSS
VL: DIQMTQSPSSLSASVGDRVTITCRASQSILTYVNWYQQKPGKAPKLVIYAATSLASGVPSRFSGSGSGTDFTLTISSLQPEDFATYYCQQSYDTPLTFGGGTKVEIK
notes: Group I
Turning to B7, the optical density was found to be 2.31 OD in the experiment with human ACVR2A, 2.58 OD with mouse ACVR2A and 3.73 OD in experiment [1].

B8: 373_D11 (antibody, V domains shown)
VH: EVQLLESGGGLVQPGGSLRLSCAASGFTFSSYGMHWVRQAPGKGLEWVAGINYNGGYTSYADSVKGRFTISRDNSKNTLYLQMNSLRAEDTAVYYCARAATWHDTHLDYWGQGTLVTVSS
VL: DIQMTQSPSSLSASVGDRVTITCRASQSILTYVNWYQQKPGKAPKLLIYAATSRASGVPSRFSGSGSGTDFTLTISSLQPEDFATYYCQQSYDNPLTFGGGTKVEIK
notes: Group II
For the molecule B8, the optical density was 3.57 OD in the experiment with human ACVR2A, 3.55 OD in the experiment with mouse ACVR2A and 3.2 OD in experiment [1].

B9: 372_A09 (antibody, V domains shown)
VH: EVQLLESGGGLVQPGGSLRLSCAASGFTFDSYGMNWVRQAPGKGLEWVSGINYNGGYTSYADSVKGRFTISRDNSKNTLYLQMNSLRAEDTAVYYCARAANWHDTALDYWGQGTLVTVSS
VL: DIQMTQSPSSLSASVGDRVTITCRASQSILSYLNWYQQKPGKAPKLVIYAATSRASGVPSRFSGSGSGTDFTLTISSLQPEDFATYYCQQSYNSPLTFGGGTKVEIK
notes: Group I
As to B9, the figures for the optical density (in the experiment with human ACVR2A; with mouse ACVR2A; in experiment [1]) were 2.43 OD, 2.56 OD and 3.5 OD, respectively.

B10: 374_A12 (antibody, V domains shown)
VH: EVQLLESGGGLVQPGGSLRLSCAASGFTFDSYGMHWVRQAPGKGLEWVSSINYNGGYTSYADSVKGRFTISRDNSKNTLYLQMNSLRAEDTAVYYCARAATWHDTHLDYWGQGTLVTVSS
VL: DIQMTQSPSSLSASVGDRVTITCRASQSILTYLNWYQQKPGKAPKLLIYAATSRASGVPSRFSGSGSGTDFTLTISSLQPEDFATYYCQQSDSNPLTFGGGTKVEIK
notes: Group II
For B10, the optical density with human ACVR2A came out at 3.31 OD; with mouse ACVR2A it was 3.26 OD; in experiment [1] it was 3.06 OD.

B11: 374_F03 (antibody, V domains shown)
VH: EVQLLESGGGLVQPGGSLRLSCAASGFTFSSYGMNWVRQAPGKGLEWVASINYNGGYTSYADSVKGRFTISRDNSKNTLYLQMNSLRAEDTAVYYCARAANWHDTHLDYWGQGTLVTVSS
VL: DIQMTQSPSSLSASVGDRVTITCRASQSIISYVNWYQQKPGKAPKLVIYAATSRASGVPSRFSGSGSGTDFTLTISSLQPEDFATYYCQQSYDTPLTFGGGTKVEIK
notes: Group I
B11: the results for the optical density (with human ACVR2A; with mouse ACVR2A; in experiment [1]) were 3.53 OD, 3.62 OD and 3.23 OD, respectively.

B12: 374_B07 (antibody, V domains shown)
VH: EVQLLESGGGLVQPGGSLRLSCAASGFTFSSYGMHWVRQAPGKGLEWVSSINYNGGYKSYADSVKGRFTISRDNSKNTLYLQMNSLRAEDTAVYYCARAATWHDTHLDYWGQGTLVTVSS
VL: DIQMTQSPSSLSASVGDRVTITCRASQSIISYLNWYQQKPGKAPKLLIYAATSLASGVPSRFSGSGSGTDFTLTISSLQPEDFATYYCQQSYESPLTFGGGTKVEIK
notes: Group II
For the molecule B12, the optical density stood at 3.71 OD with human ACVR2A, 3.71 OD with mouse ACVR2A and 3.29 OD in experiment [1].

B13: 372_E02 (antibody, V domains shown)
VH: EVQLLESGGGLVQPGGSLRLSCAASGFTFSSYGMNWVRQAPGKGLEWVASINYNGGYTSYADSVKGRFTISRDNSKNTLYLQMNSLRAEDTAVYYCARAANWHDTALDYWGQGTLVTVSS
VL: DIQMTQSPSSLSASVGDRVTITCRASQSIISYVNWYQQKPGKAPKLVIYAATSRASGVPSRFSGSGSGTDFTLTISSLQPEDFATYYCQQSYDLPLTFGGGTKVEIK
notes: Group I
In the case of B13, the optical density in the experiment with human ACVR2A was determined as 2.84 OD; with mouse ACVR2A, 2.74 OD; in experiment [1], 3.58 OD.

B14: 373_E11 (antibody, V domains shown)
VH: EVQLLESGGGLVQPGGSLRLSCAASGFTFDSYGMHWVRQAPGKGLEWVASINYNGGYTSYADSVKGRFTISRDNSKNTLYLQMNSLRAEDTAVYYCARAANWHDTALDYWGQGTLVTVSS
VL: DIQMTQSPSSLSASVGDRVTITCRASQSIVSYLNWYQQKPGKAPKLVIYAATSRASGVPSRFSGSGSGTDFTLTISSLQPEDFATYYCQQSYDSPLTFGGGTKVEIK
notes: Group I
On to B14, for which the results for the optical density (with human ACVR2A; with mouse ACVR2A; in experiment [1]) were 3.3 OD, 3.36 OD and 3.17 OD, respectively.

B15: 373_G06 (antibody, V domains shown)
VH: EVQLLESGGGLVQPGGSLRLSCAASGFTFSSYGMHWVRQAPGKGLEWVASINYNSGYTGYADSVKGRFTISRDNSKNTLYLQMNSLRAEDTAVYYCARAATWHDTHLDYWGQGTLVTVSS
VL: DIQMTQSPSSLSASVGDRVTITCRASQSILSYVNWYQQKPGKAPKLLIYAATSLASGVPSRFSGSGSGTDFTLTISSLQPEDFATYYCQQSYNLPLTFGGGTKVEIK
notes: Group II
On to B15, for which the results for the optical density (in the experiment with human ACVR2A; in the experiment with mouse ACVR2A; in experiment [1]) were 3.4 OD, 3.52 OD and 3.23 OD, respectively.

B16: 375_C10 (antibody, V domains shown)
VH: EVQLLESGGGLVQPGGSLRLSCAASGFTFSSYGMHWVRQAPGKGLEWVASINYNGGYTSYADSVKGRFTISRDNSKNTLYLQMNSLRAEDTAVYYCARAANWHDTALDYWGQGTLVTVSS
VL: not shown
notes: Group I
Turning to B16, the figures for the optical density (with human ACVR2A; with mouse ACVR2A; in experiment [1]) were 3.46 OD, 3.6 OD and 3.33 OD, respectively.

B17: 372_D07 (antibody, V domains shown)
VH: EVQLLESGGGLVQPGGSLRLSCAASGFTFSSYGMNWVRQAPGKGLEWVAGINYNGGYTSYADSVKGRFTISRDNSKNTLYLQMNSLRAEDTAVYYCARAATWHDTHLDYWGQGTLVTVSS
VL: DIQMTQSPSSLSASVGDRVTITCRASQSILSYLNWYQQKPGKAPKLLIYAATSRASGVPSRFSGSGSGTDFTLTISSLQPEDFATYYCQQSYESPLTFGGGTKVEIK
notes: Group II
Regarding B17, the optical density in the experiment with human ACVR2A turned out to be 2.68 OD; with mouse ACVR2A, 2.99 OD; in experiment [1], 3.7 OD.

B18: 371_H02 (antibody, V domains shown)
VH: EVQLLESGGGLVQPGGSLRLSCAASGFTFDDYSMNWVRQAPGKGLEWVSGINYNGGYKSYADSVKGRFTISRDNSKNTLYLQMNSLRAEDTAVYYCARAANWHDTHLDYWGQGTLVTVSS
VL: DIQMTQSPSSLSASVGDRVTITCRASQSIISYLNWYQQKPGKAPKLVIYAATSLASGVPSRFSGSGSGTDFTLTISSLQPEDFATYYCQQSYENPLTFGGGTKVEIK
notes: Group I
Regarding B18, the optical density in the experiment with human ACVR2A came out at 1.88 OD; in the experiment with mouse ACVR2A, 2.03 OD; in experiment [1], 3.62 OD.
